From article PMC11548754, “DRN facilitates WUS transcriptional regulatory activity by chromatin remodeling to regulate shoot stem cell homeostasis in Arabidopsis” (PLOS Biology, 2024)

T1: GST-BRM (Arabidopsis, UniProt Q6EVK6 1-976)
T1 construct: The pull-down methods call it GST-BRM; also called BRAHMA; source: E. coli BL21 (DE3), purified (glutathione resin); not shown: GST, N-terminal, kept
T1 sequence (looked up): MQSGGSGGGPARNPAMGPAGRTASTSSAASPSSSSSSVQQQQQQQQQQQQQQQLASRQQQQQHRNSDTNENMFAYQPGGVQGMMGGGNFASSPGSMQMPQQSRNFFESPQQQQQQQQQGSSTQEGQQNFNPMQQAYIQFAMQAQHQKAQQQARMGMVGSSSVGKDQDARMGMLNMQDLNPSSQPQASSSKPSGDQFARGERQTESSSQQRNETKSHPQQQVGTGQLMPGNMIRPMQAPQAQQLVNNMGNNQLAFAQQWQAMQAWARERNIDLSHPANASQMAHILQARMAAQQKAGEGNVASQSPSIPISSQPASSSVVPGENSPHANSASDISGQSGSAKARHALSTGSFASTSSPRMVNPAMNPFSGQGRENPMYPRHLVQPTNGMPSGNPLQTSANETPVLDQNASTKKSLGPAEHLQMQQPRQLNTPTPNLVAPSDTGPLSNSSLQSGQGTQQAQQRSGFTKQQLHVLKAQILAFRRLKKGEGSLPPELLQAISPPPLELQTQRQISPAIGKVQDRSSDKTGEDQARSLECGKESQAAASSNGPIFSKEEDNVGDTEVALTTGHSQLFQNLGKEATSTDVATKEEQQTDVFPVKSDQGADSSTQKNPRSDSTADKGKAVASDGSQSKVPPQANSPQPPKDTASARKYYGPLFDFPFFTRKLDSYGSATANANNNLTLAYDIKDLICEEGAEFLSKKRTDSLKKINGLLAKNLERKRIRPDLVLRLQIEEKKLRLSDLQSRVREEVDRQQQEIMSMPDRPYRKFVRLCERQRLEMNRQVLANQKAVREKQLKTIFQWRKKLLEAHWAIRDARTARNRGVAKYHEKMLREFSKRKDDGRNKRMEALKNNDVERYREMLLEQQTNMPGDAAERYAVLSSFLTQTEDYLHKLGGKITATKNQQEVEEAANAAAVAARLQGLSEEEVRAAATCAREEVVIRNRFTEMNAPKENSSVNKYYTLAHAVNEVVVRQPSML

B1: GST-WUS (natural protein, Arabidopsis, UniProt Q9SB92 1-292, looked up)
chain: MEPPQHQHHHHQADQESGNNNNNKSGSGGYTCRQTSTRWTPTTEQIKILKELYYNNAIRSPTADQIQKITARLRQFGKIEGKNVFYWFQNHKARERQKKRFNGTNMTTPSSSPNSVMMAANDHYHPLLHHHHGVPMQRPANSVNVKLNQDHHLYHHNKPYPSFNNGNLNHASSGTECGVVNASNGYMSSHVYGSMEQDCSMNYNNVGGGWANMDHHYSSAPYNFFDRAKPLFGLEGHQEEEECGGDAYLEHRRTLPLFPMHGEDHINGGSGAIWKYGQSEVRPCASLELRLN
notes: also called WUSCHEL; glutathione-S-transferase (GST)-WUS; source: E. coli BL21 (DE3), purified (glutathione resin); for EMSA also size-exclusion chromatography; not shown: GST, N-terminal, kept
B2: 8His-MBP-DRN (natural protein)
chain: not shown
notes: also called DORNRÖSCHEN; source: E. coli BL21 (DE3), purified (Ni resin); for EMSA also size-exclusion chromatography; not shown: 8His, N-terminal, kept; MBP, N-terminal, kept

What was measured:
[1] = molecular target: the molecule itself; assay: pull-down; competition: agarose beads with 8His-MBP-WUS incubated with soluble GST-WUS for 6 h before soluble 8His-MBP-DRN was added; binding group without DRN
8His-MBP-DRN = molecular target: B2; assay: native gel or EMSA; EMSA with biotin-labelled CLV3 promoter probe (−1,090 to −1,064); GST-WUS alone or with 8His-MBP-DRN; super-shift; conditions: both partners purified
GST-BRM = molecular target: T1, GST-BRM; assay: pull-down; beads loaded with protein and soluble protein rotated at 4°C for 4 h in pull-down buffer (200 mM NaCl, 1 mM EDTA, 20 mM Tris-HCl, 0.15 mM PMSF, pH 8.0); blots with anti-GST and anti-His; conditions: both partners purified

8His-MBP-DRN, sequence (Q9SAD4 whole entry): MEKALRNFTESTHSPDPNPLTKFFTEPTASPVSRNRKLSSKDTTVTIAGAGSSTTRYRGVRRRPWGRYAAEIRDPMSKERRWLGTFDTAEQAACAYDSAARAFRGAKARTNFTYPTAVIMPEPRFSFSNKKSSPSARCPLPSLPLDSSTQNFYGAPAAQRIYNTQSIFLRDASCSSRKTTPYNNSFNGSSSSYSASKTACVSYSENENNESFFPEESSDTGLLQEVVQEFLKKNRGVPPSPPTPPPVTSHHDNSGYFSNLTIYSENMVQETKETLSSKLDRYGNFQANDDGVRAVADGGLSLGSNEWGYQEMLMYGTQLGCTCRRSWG

B1
binding result [1]: binds
binding result (8His-MBP-DRN): binds

B2
binding result (GST-BRM): binds
